In this experiment the target is stable 100 kDa N-terminal fragment of CagA (Helicobacter pylori (strain not stated)) (UniProt P55980). Kind of experiment: SPR. Background: In SPR one partner is held on a chip, and binding of the other changes the refractive index at the surface.

As a reminder, the Kd is the equilibrium constant for the complex coming apart. Low values mean higher affinity, high ones lower affinity.

Sequence of stable 100 kDa N-terminal fragment of CagA (Helicobacter pylori (strain not stated)) (P55980 1-885 limits assumed): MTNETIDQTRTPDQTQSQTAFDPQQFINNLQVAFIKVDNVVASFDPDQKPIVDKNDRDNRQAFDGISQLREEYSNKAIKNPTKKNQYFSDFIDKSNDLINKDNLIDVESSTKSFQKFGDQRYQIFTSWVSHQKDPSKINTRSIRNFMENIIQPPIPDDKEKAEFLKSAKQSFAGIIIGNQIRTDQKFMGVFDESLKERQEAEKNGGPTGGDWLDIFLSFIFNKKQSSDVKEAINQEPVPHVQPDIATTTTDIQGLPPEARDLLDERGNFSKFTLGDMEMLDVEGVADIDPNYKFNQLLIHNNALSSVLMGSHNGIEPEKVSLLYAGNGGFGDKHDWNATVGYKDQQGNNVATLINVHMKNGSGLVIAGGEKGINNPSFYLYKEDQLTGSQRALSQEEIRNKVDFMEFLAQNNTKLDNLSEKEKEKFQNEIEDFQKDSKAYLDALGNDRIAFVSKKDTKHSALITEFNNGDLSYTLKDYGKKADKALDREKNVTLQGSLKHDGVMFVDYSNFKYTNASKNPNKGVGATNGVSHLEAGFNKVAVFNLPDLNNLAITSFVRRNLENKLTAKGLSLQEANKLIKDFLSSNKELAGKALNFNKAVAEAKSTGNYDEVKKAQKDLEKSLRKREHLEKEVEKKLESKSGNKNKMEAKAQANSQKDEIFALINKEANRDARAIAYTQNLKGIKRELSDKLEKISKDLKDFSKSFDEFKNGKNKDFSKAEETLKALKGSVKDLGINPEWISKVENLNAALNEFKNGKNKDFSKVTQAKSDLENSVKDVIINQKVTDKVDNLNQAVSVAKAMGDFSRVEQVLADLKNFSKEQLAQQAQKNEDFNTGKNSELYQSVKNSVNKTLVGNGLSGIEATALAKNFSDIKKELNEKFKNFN

Turning to “purified human α5β1 integrin (from placenta) (from UniProt P05556 21-798) (complex)”, the Kd came out at 0.153 nM.

Substance “purified human αVβ3 integrin (from placenta) (from UniProt P05106 27-788) (complex)” returned an equilibrium dissociation constant (Kd) of 33.4 nM. This Kd lies about 220-fold higher than the previous one.

(Values after article PMC2779590.)
